Columns and labels:
[1] = target: Normal MUC1 on non-transformed MCF-10A cells and on normal tissue (human) (UniProt P15941); experiment: immunohistochemistry, colon tissue microarray, normal samples
[2] = target: Normal MUC1 on non-transformed MCF-10A cells and on normal tissue (human) (UniProt P15941); experiment: immunohistochemistry, colon tissue microarray
Synthetic peptide (…)2 = experiment: ELISA on coated peptide, antibody 0.01 mg/ml, mean of 3
[3] = target: Synthetic peptide …; experiment: as above
BSA = BSA (UniProt P02769); experiment: ELISA on coated BSA, antibody 0.01 mg/ml, mean of 3
[4] = target: SEQ ID NO: 346 glycopeptide with TF-antigen at Thr16; experiment: ELISA on coated glycopeptide, antibody 0.01 mg/ml, mean of 3
[5] = target: SEQ ID NO: 346 glycopeptide with TF-antigen at Thr4 and Thr9; experiment: as above
[6] = target: SEQ ID NO: 346 glycopeptide with Tn-antigen at Thr4, Thr9 and Thr16; experiment: as above
[7] = target: SEQ ID NO: 346 glycopeptide with TF-antigen at Thr9; experiment: as above
[8] = target: SEQ ID NO: 346 glycopeptide with TF-antigen at Ser5; experiment: as above
[9] = target: SEQ ID NO: 346 glycopeptide with TF-antigen at Thr4; experiment: as above
[10] = target: Normal MUC1 on non-transformed MCF-10A cells and on normal tissue (human) (UniProt P15941); experiment: flow cytometry, MCF10a cells
[11] = target: Normal MUC1 on non-transformed MCF-10A cells and on normal tissue (human) (UniProt P15941); experiment: flow cytometry, MCF10a cells, secondary antibody only

Sequence of BSA (P02769 25-607 limits assumed): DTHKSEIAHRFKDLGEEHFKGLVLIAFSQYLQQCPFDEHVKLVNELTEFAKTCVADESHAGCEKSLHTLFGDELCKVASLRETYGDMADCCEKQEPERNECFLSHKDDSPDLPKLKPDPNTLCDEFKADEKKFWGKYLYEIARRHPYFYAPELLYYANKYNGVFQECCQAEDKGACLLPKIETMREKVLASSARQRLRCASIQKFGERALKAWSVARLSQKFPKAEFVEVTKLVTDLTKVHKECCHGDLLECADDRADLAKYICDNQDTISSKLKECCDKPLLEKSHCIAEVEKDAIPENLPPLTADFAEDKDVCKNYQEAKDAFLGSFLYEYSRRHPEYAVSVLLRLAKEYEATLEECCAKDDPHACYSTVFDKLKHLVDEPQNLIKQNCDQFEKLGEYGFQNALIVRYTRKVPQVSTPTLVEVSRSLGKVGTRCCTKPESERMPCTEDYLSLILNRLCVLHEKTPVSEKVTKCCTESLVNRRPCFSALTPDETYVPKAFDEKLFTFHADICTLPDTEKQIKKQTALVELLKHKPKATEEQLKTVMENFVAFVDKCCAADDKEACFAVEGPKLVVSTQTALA
Sequence of Synthetic peptide (…)2 (peptide, as listed by the source): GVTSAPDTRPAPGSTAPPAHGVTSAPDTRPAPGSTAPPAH

## HMPV (BD Biosciences), mouse anti-MUC1 antibody
[1]
  MUC1+ samples stained (of 3 MUC1+ normal samples): 3
[2]
  samples MUC1+ by staining (of 6 normal samples): 3

## VU-4H5 (Abnova), mouse anti-MUC1 antibody
Synthetic peptide (…)2
  ELISA absorbance at 450 nm: 2.5 absorbance
[3]
  ELISA absorbance at 450 nm: 1.9 absorbance
BSA
  ELISA absorbance at 450 nm: 0.1 absorbance
[4]
  ELISA absorbance at 450 nm: 1.9 absorbance
[5]
  ELISA absorbance at 450 nm: 0.1 absorbance
[6]
  ELISA absorbance at 450 nm: 0.1 absorbance
[7]
  ELISA absorbance at 450 nm: 0.1 absorbance
[8]
  ELISA absorbance at 450 nm: 1.8 absorbance
[9]
  ELISA absorbance at 450 nm: 1.8 absorbance
[10]
  percentage of APC+ stained cells: 3.85%

## M-2nd. (APC-labeled secondary antibody only control for the mouse antibodies)
[11]
  percentage of APC+ stained cells: 0.6%

## VU-3C6 (Abcam), mouse anti-MUC1 antibody
Synthetic peptide (…)2
  ELISA absorbance at 450 nm: 2.3 absorbance
[3]
  ELISA absorbance at 450 nm: 1.5 absorbance
BSA
  ELISA absorbance at 450 nm: 0.2 absorbance
[4]
  ELISA absorbance at 450 nm: 1.5 absorbance
[5]
  ELISA absorbance at 450 nm: 2.4 absorbance
[6]
  ELISA absorbance at 450 nm: 2.4 absorbance
[7]
  ELISA absorbance at 450 nm: 2.4 absorbance
[8]
  ELISA absorbance at 450 nm: 2 absorbance
[9]
  ELISA absorbance at 450 nm: 2 absorbance
[10]
  percentage of APC+ stained cells: 99.2%

## Hu-2nd. (APC-labeled secondary antibody only control for the human antibodies)
[11]
  percentage of APC+ stained cells: 0.25%

From patent US20160145343A1
